Here are results for 3 molecules from publication PMC8524320.

No end group written: not given here. *: point of attachment. TAMRA = 5-carboxytetramethylrhodamine, CN(C)c1ccc2c(-c3ccc(C(=O)*)cc3C(=O)[O-])c3ccc(N(C)C)cc3[o+]c2c1

The target in test [1] is HLA-A*68:02^S88R on the surface of HeLaM-HLA-ABC^KO cells (human). Nature of the test: flow cytometry on cells; competition: surface MHC-I pre-loaded with 10 nM fluorescent peptide in the presence of TAPBPR (100 nM for HLA-A*68:02 WT, 10 nM for N86Q and S88R), washed, then 0, 100 nM or 1000 nM recombinant TAPBPR for 30 min; loss of bound peptide against no TAPBPR.
Test [2] addresses HLA-A*68:02^N86Q on the surface of HeLaM-HLA-ABC^KO cells (human). The test is described as above.
Test [3] addresses HLA-A*68:02^WT on the surface of HeLaM-HLA-ABC^KO cells (human). The description is as above.
Test [4] deals with HLA-A*68:02^S88R on the surface of HeLaM-HLA-ABC^KO cells (human). Nature of the test: flow cytometry on cells; competition: cells treated with 1 μM soluble TAPBPR for 30 min at 37 °C, washed, then 0, 10 nM or 100 nM high-affinity peptide for 15 min (methods: 30 min); loss of bound TAPBPR (PeTe-4) against no peptide.
Test [5] deals with HLA-A*68:02^N86Q on the surface of HeLaM-HLA-ABC^KO cells (human). The test is described as above.
Test [6] concerns the target HLA-A*68:02^WT on the surface of HeLaM-HLA-ABC^KO cells (human). Described as above.

Regarding “recombinant soluble TAPBPR^WT (lumenal domains, C-terminal His6) (from UniProt Q9BX59 19-405) (domain or fragment)”, in test [1], the % loss of pre-loaded YVVPFVAK*V in the presence of TAPBPR (up to) was 50%, the % of pre-loaded ETVSK*QSNV dissociated by 100 nM TAPBPR stood at 75% and the % of pre-loaded ETVSK*QSNV dissociated by 1 μM TAPBPR is > 90%. Moreover, in test [2], the % loss of pre-loaded YVVPFVAK*V in the presence of TAPBPR (up to) stood at 30%, the % of pre-loaded ETVSK*QSNV dissociated by 100 nM TAPBPR turned out to be 50% and the % of pre-loaded ETVSK*QSNV dissociated by 1 μM TAPBPR is 85%. The % of pre-loaded ETVSK*QSNV dissociated by 1 μM TAPBPR in test [3] stood at 30%.

Turning to ETVSK(TAMRA)QSNV [ETVSK*QSNV (TAMRA-labelled peptide specific for HLA-A*68:02)], the % of bound TAPBPR dissociated by the peptide in test [4] was determined as 60%; in test [5], 70%; in test [6] it was 85%.

For the molecule YVVPFVAK(TAMRA)V [YVVPFVAK*V (TAMRA-labelled peptide specific for HLA-A*68:02)], the figures for the % of bound TAPBPR displaced by the peptide in test [4], in test [5] and in test [6] were 83%, 86% and 92%, respectively.
